B1: recombinant soluble murine EphB3-Fc (Fc fusion)
chain: LEETLMDTKWVTSELAWTSHPESGWEEVSGYDEAMNPIRTYQVCNVRESSQNNWLRTGFIWRREVQRVYVELKFTVRDCNSIPNIPGSCKETFNLFYYEADSDVASASSPFWMENPYVKVDTIAPDESFSRLDAGRVNTKVRSFGPLSKAGFYLAFQDQGACMSLISVRAFYKKCASTTAGFALFPETLTGAEPTSLVIAPGTCIANAVEVSVPLKLYCNGDGEWMVPVGACTCATGHEPAAKESQCRACPPGSYKAKQGEGPCLPCPPNSRTTSPAASICTCHNNFYRADSDSADSACTTVPSPPRGVISNVNETSLILEWSEPRDLGGRDDLLYNVICKKCRGSSGAGGPATCSRCDDNVEFVPRQLGLTERRVHISHLLAHTRYTFEVQAVNGVSGKSPLPPRYAAVNITTNQAAPSEVPTLHLHSSSGSSLTLSWAPPERPNGVILDYEMKYFEKSKGIASTVTSQKNSVQLDGLQPDARYVVQVRARTVAGYGQYSHPAEFETTSERGSGAQQLQEQLPL

How the values were obtained:
[1] = molecular target: MHV68 gL-gH fusion protein (gL-Linker-gH-Linker-His6) (murine gammaherpesvirus 68 (MHV68))
[2] = molecular target: MHV68 gL-gH fusion protein (gL-Linker-gH-Linker-His6) (murine gammaherpesvirus 68 (MHV68)); assay: ELISA; MHV68 gL-gH fusion protein coated at 2.5 μg/ml in PBS on Maxisorp plates; dimeric soluble murine Eph-Fc proteins 2 h at room temperature in 1% BSA in PBS; detected with ProteinG-HRP; four-parameter dose-response fit

| Molecule | reduction of MHV68 ORF59-GFP infection of the murine endothelial cell line SVEC4-10 after pre-incubation of virions with 100 nM homodimerized mEphA4-Fc [1] | EC50 [2] | inhibition of MHV68 ORF59-GFP infection of human fibroblasts (HFF) and endothelial cells (TIME) after pre-incubation of virions with 100 nM homodimerized mEphB3-Fc [1] | reduction of MHV68 ORF59-GFP infection of NIH 3T3 murine fibroblasts after pre-incubation of virions with a concentration series of soluble mEphB3-Fc, up to 100 nM homodimerized protein [1] |
| --- | --- | --- | --- | --- |
| recombinant soluble murine EphA4-Fc (from UniProt Q03137 20-547) (Fc fusion) | 25% | 3.6 nM | – | – |
| B1 | – | 2.3 nM | 30% | 40% |

— doi:10.1101/2025.06.05.657996
